Results published in publication PMC7160556.

B1: endogenous 14-3-3ζ (YWHAZ), P63104 1-245 (natural protein)
chain: MDKNELVQKAKLAEQAERYDDMAACMKSVTEQGAELSNEERNLLSVAYKNVVGARRSSWRVVSSIEQKTEGAEKKQQMAREYREKIETELRDICNDVLSLLEKFLIPNASQAESKVFYLKMKGDYYRYLAEVAAGDDKKGIVDQSQQAYQEAFEISKKEMQPTHPIRLGLALNFSVFYYEILNSPEKACSLAKTAFDEAIAELDTLSEESYKDSTLIMQLLRDNLTLWTSDTQGDEAEAGEGGEN
B2: untagged 14-3-3ζ, overexpressed, P63104 1-245 (natural protein)
chain: B1 chain

Assays:
[1] = molecular target: T1, endogenous 14-3-3ζ (YWHAZ) (human (endogenous in A549)), P63104; experiment: native gel or EMSA; settings: remark: other sources report otherwise
T1 chain: B1 chain

[2] = molecular target: T2, untagged 14-3-3ζ, overexpressed, P63104; experiment: native gel or EMSA; settings: remark: other sources report otherwise
T2 chain: B1 chain

Row | Binder | stoichiometry N [1] | stoichiometry N [2]
1 | B1 | 2 | 
2 | B2 |  | 2
